Measured values published in the supplement of paper PMC10126150.
± gives the standard deviation of the averaged measurements.

Test system: ATP
Test: switch fluorescence ratio, 500 uM ATP over buffer (Cy3 cluster intensity, sum of 5 cycles each) (fold (ratio)); higher = stronger signal-on switching upon ATP binding; sequences stand for … in TCGTCGGCAGCGTCAGATGTGTATAAGAGACAGTTTTTTTTTTTTTTTTTTTTTTTTT…TC
Conditions: aptamer strand: ATP DNA aptamer (quencher-CACCTGGGGGAGTATTGCGGAGGAAGG + anchor), 100 nM annealed; ATP concentration: 500 uM
In short: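 The quencher-labelled ATP aptamer, at 100 nM, was annealed to Cy3-labelled switching-strand clusters on a modified Illumina MiSeq flow-cell. The clusters were imaged in selection buffer, then after 15 min with 500 uM ATP at 22 °C, and this buffer/ATP cycle ran five times with NaOH stripping and re-annealing between runs. Per-cluster fluorescence ratios, summed target-cycle over summed buffer-cycle Cy3 intensity, were averaged per switch-domain sequence. Clusters outside 100-1000 RFU were excluded.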
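Further: ATP exposure 15 min at 22 °C before imaging.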

Sequence	switch fluorescence ratio
CCAACCTGAT	1.31 ± 0.18
CCAACTTTTC	1.0433 ± 0.00094
CCAAGCATAG	3.63 ± 0.47
CCAAGCATCG	1.197 ± 0.0062
CCAAGTAGTA	1.03 ± 0.032
CCAAGTGTGC	1.26 ± 0.17
CCAAGTTCTC	0.972 ± 0.021
CCAATAGTTC	1.08 ± 0.022
CCAATGACGT	0.979 ± 0.039
CCAATGTATG	0.998 ± 0.044
CCAATTATGT	1.01 ± 0.025
CCAATTTGGG	0.964 ± 0.029
CCACAATCAG	1.274 ± 0.012
CCACACGTTT	1.13 ± 0.076
CCACAGAGGG	1.21 ± 0.17
CCACATCCAT	1.044 ± 0.01
CCACCATATT	1.07 ± 0.039
CCACCGGGGC	2.3 ± 0.12
CCACGCCAGA	1.28 ± 0.052
CCACTAGACC	1.14 ± 0.026
CCACTTTGGG	1 ± 0.069
CCAGAACTTA	1.03 ± 0.026

Sequence	switch fluorescence ratio
CCAGAGGGTT	1.03 ± 0.031
CCAGATATCA	0.999 ± 0.054
CCAGCAGGTA	1.13 ± 0.064
CCAGCGCACG	1.541 ± 0.014
CCAGGAAACG	0.99 ± 0.072
CCAGGCACTG	1.03 ± 0.021
CCAGGCGGGG	0.9969 ± 0.0046
CCAGGCTATG	1.012 ± 0.0047
CCAGGCTGTT	1.07 ± 0.023
CCAGGGAGTG	1.04 ± 0.015
CCAGGGCGAA	1.064 ± 0.0056
CCAGGGGGCA	1.13 ± 0.14
CCAGGTATGA	1.03 ± 0.035
CCAGGTGGCA	2.83 ± 0.24
CCAGGTTATC	1.04 ± 0.032
CCAGTAGTCC	1.14 ± 0.0031
CCAGTAGTTA	0.999 ± 0.015
CCAGTATATT	1.02 ± 0.043
CCAGTATCTG	0.998 ± 0.013
CCAGTATGTT	0.993 ± 0.024
CCAGTGAATA	1.06 ± 0.021
CCAGTGTGAG	1.13 ± 0.039

Sequence	switch fluorescence ratio
CCAGTTAGGA	1.01 ± 0.033
CCAGTTGATA	0.991 ± 0.032
CCAGTTTCTG	1.02 ± 0.012
CCAGTTTTCC	1.01 ± 0.036
CCATATCCAA	1.06 ± 0.055
CCATATGT	0.985 ± 0.028
CCATCATAGA	0.9887 ± 0.0061
CCATCGTACC	1.3 ± 0.018
CCATCTAGTT	0.9681 ± 0.0047
CCATGACTCT	0.983 ± 0.016
CCATGGCCAC	1.0321 ± 0.00059
CCATGGCCTG	0.97 ± 0.042
CCATGGGGGT	1.16 ± 0.14
CCATGTGGG	1.02 ± 0.013
CCATGTGTGC	1.02 ± 0.027
CCATGTGTGT	1.0078 ± 7.5e-05
CCATTAAAAG	1 ± 0.052
CCATTAGGAG	0.988 ± 0.012
CCATTAGGGG	1.01 ± 0.044
CCATTAGTTG	0.998 ± 0.02
CCATTATTTT	1 ± 0.03
CCATTCTAGA	1.012 ± 0.0013

Sequence	switch fluorescence ratio
CCATTCTCTC	0.974 ± 0.082
CCATTGGGGT	0.995 ± 0.017
CCATTGTAAT	1.1 ± 0.024
CCATTGTGTG	0.98955 ± 0.00067
CCATTTGCGC	1.02 ± 0.034
CCATTTGTTG	0.971 ± 0.02
CCATTTTTAC	1.1 ± 0.13
CCCAAAATGC	2.87 ± 1.5
CCCAGGAGGC	1.08 ± 0.03
CCCATCCATC	1.03 ± 0.029
CCCATGTGAG	1.09 ± 0.022
CCCATTGTTT	1.01 ± 0.022
CCCATTTAGT	1.04 ± 0.023
CCCCAAGCAG	2.497 ± 0.0041
CCCCACTGTG	1.53 ± 0.69
CCCCAGGCAT	2.68 ± 0.5
CCCCCGGGGT	1.83 ± 0.38
CCCCGGATGG	1.26 ± 0.22
CCCCTGGATA	1.03 ± 0.043
